Residue numbers refer to the chain shown, from its start. In names and notes the source's numbering stands.
T1: wild-type mouse IL-2Rβ (mouse, UniProt P16297 27-240, limits assumed)
T1 construct: Recombinant protein coated on the SPR chip or used to stain yeast; also called wild-type IL-2Rβ; mIL-2Rβ
T1 sequence: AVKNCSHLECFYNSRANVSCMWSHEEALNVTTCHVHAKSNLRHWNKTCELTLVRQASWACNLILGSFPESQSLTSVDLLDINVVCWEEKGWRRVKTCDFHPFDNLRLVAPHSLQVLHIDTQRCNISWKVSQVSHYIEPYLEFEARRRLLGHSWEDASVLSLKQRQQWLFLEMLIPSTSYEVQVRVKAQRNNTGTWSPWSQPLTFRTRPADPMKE

B1: ortho human IL-2Rβ H133D Y134F mutant tetramers (receptor)
chain: AVNGTSQFTCFYNSRANISCVWSQDGALQDTSCQVHAWPDRRRWNQTCELLPVSQASWACNLILGAPDSQKLTTVDIVTLRVLCREGVRWRVMAIQDFKPFENLRLMAPISLQVVHVETHRCNISWEISQASDFFERHLEFEARTLSPGHTWEEAPLLTLKQKQEWICLETLTPDTQYEFQVRVKPLQGEFTTWSPWSQPLAFRTKPAALGKDT
notes: Tetramers used to stain yeast; also called ortho-hIL-2Rβ; ortho hIL-2Rβ
B2: wild-type mouse IL-2 (ligand)
chain: APTSSSTSSSTAEAQQQQQQQQQQQQHLEQLLMDLQELLSRMENYRNLKLPRMLTFKFYLPKQATELKDLQCLEDELGPLRHVLDLTQSKSFQLEDAENFISNIRVTVVKLKGSDNTFECQFDDESATVVDFLRRWIAFCQSIISTSPQ
notes: Soluble protein flowed over the SPR chip; also called wt mIL-2; wild-type IL-2
B3: orthogonal mouse IL-2Rβ H134D Y135F (receptor)
chain: T1 sequence with H134D, Y135F
notes: Recombinant protein coated on the SPR chip or used to stain yeast; also called orthoIL-2Rβ; mIL-2Rβ H134D Y135F

Key:
[1] = target: T2, yeast-displayed wild-type human IL-2 (human, UniProt P60568 21-153); assay: FACS, yeast-displayed hIL-2 stained with receptor tetramers
T2 construct: also called wild-type IL-2; hIL-2
T2 sequence (P60568 21-153): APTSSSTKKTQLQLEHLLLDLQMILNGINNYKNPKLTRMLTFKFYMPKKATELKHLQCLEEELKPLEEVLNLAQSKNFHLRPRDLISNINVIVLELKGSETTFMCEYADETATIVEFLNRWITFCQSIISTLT
Description: We introduced the H133D Y134F mutations that were used to create the mouse orthol L-2Rβ into human IL-2Rβ, as these residues are highly conserved between mouse and human.
Yeast display of IL-2. […] Transformed yeast were passaged once in SDCAA and yeast cultures in log phase were pelleted and resuspended at an OD600 of 1.0 in SGCAA induction media containing 10% SDCAA and cultured for 24 hr at 20° C.

wild-type mouse IL-2Rβ = target: T1, wild-type mouse IL-2Rβ; assay: SPR, soluble IL-2 over a receptor-coated chip, 1:1 binding model
Description: Binding was determined by surface plasmon resonance (SPR) and curves were fitted using a 1:1 binding model.

wild-type mouse IL-2 = target: B2; assay: surface plasmon resonance

B1
binding result [1]: no binding

B2
binding result (wild-type mouse IL-2Rβ): binds

B3
binding result (wild-type mouse IL-2): no binding

— patent US20210060068A1 (Stanford University, published 2021)
